System: Escherichia coli TOP10
Assay: shrunken log2 fold change of peptide-encoding DNA abundance (4.5 h post-induction vs induction); higher = less antimicrobial activity (less host growth inhibition)
Details: time post-induction: 4.5 h; library: site-saturation at positions 5, 18, 19, 20
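Also: peptides expressed intracellularly from a pBAD plasmid library in pooled LB shake-flask culture, induced with 0.3% L-arabinose, DNA abundance read by NGS, three biological replicates, DESeq2 with apeglm shrinkage.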

Row | Sequence | shrunken log2 fold change
1 | RRIRKRPPRLPRPRPRPNRDPRP | 0.169
2 | RRIRKRPPRLPRPRPRPNREPRP | 0.0158
3 | RRIRKRPPRLPRPRPRPNSSPRP | -0.0248
4 | RRIRKRPPRLPRPRPRPNTPPRP | 0.221
5 | RRIRKRPPRLPRPRPRPNTWPRP | 0.0309
6 | RRIRKRPPRLPRPRPRPNVKPRP | 0.0115
7 | RRIRKRPPRLPRPRPRPNVTPRP | 0.138
8 | RRIRKRPPRLPRPRPRPNWYPRP | -0.185
9 | RRIRKRPPRLPRPRPRPNYPPRP | -0.175
10 | RRIRKRPPRLPRPRPRPPAEPRP | 1.07
11 | RRIRKRPPRLPRPRPRPPCIPRP | -0.141
12 | RRIRKRPPRLPRPRPRPPDCPRP | 1.03
13 | RRIRKRPPRLPRPRPRPPDRPRP | 0.862
14 | RRIRKRPPRLPRPRPRPPFVPRP | 0.209
15 | RRIRKRPPRLPRPRPRPPGKPRP | 0.756
16 | RRIRKRPPRLPRPRPRPPGPPRP | 1.04
17 | RRIRKRPPRLPRPRPRPPIYPRP | 0.0758
18 | RRIRKRPPRLPRPRPRPPKEPRP | 0.944
19 | RRIRKRPPRLPRPRPRPPLQPRP | 0.558
20 | RRIRKRPPRLPRPRPRPPMEPRP | 0.135
21 | RRIRKRPPRLPRPRPRPPMLPRP | 0.203
22 | RRIRKRPPRLPRPRPRPPMVPRP | 0.296
23 | RRIRKRPPRLPRPRPRPPNIPRP | -1.03
24 | RRIRKRPPRLPRPRPRPPQKPRP | 0.682
25 | RRIRKRPPRLPRPRPRPPQWPRP | 1.37

Row | Sequence | shrunken log2 fold change
26 | RRIRKRPPRLPRPRPRPPREPRP | 0.689
27 | RRIRKRPPRLPRPRPRPPRYPRP | 0.525
28 | RRIRKRPPRLPRPRPRPPSHPRP | 0.543
29 | RRIRKRPPRLPRPRPRPPWDPRP | 0.68
30 | RRIRKRPPRLPRPRPRPPWFPRP | 0.309
31 | RRIRKRPPRLPRPRPRPPWKPRP | 0.173
32 | RRIRKRPPRLPRPRPRPPYGPRP | 0.156
33 | RRIRKRPPRLPRPRPRPPYNPRP | -0.149
34 | RRIRKRPPRLPRPRPRPPYSPRP | -0.433
35 | RRIRKRPPRLPRPRPRPQCLPRP | 0.131
36 | RRIRKRPPRLPRPRPRPQDEPRP | -0.0149
37 | RRIRKRPPRLPRPRPRPQDFPRP | 0.00806
38 | RRIRKRPPRLPRPRPRPQDQPRP | 0.325
39 | RRIRKRPPRLPRPRPRPQDSPRP | -0.017
40 | RRIRKRPPRLPRPRPRPQEHPRP | 0.0487
41 | RRIRKRPPRLPRPRPRPQFVPRP | -0.0281
42 | RRIRKRPPRLPRPRPRPQGGPRP | 0.0321
43 | RRIRKRPPRLPRPRPRPQGQPRP | -0.00726
44 | RRIRKRPPRLPRPRPRPQIAPRP | -0.11
45 | RRIRKRPPRLPRPRPRPQKFPRP | 0.0144
46 | RRIRKRPPRLPRPRPRPQLIPRP | 0.0871
47 | RRIRKRPPRLPRPRPRPQNSPRP | -0.0372
48 | RRIRKRPPRLPRPRPRPQPNPRP | 0.159
49 | RRIRKRPPRLPRPRPRPQPWPRP | 0.805
50 | RRIRKRPPRLPRPRPRPQQEPRP | 0.0644

Row | Sequence | shrunken log2 fold change
51 | RRIRKRPPRLPRPRPRPQRCPRP | 0.269
52 | RRIRKRPPRLPRPRPRPQRPPRP | 0.518
53 | RRIRKRPPRLPRPRPRPQRRPRP | 0.734
54 | RRIRKRPPRLPRPRPRPQVGPRP | 0.0646
55 | RRIRKRPPRLPRPRPRPQVYPRP | -0.0614
56 | RRIRKRPPRLPRPRPRPQYQPRP | -0.11
57 | RRIRKRPPRLPRPRPRPQYTPRP | -0.156
58 | RRIRKRPPRLPRPRPRPQYWPRP | 0.152
59 | RRIRKRPPRLPRPRPRPRAQPRP | 0.7
60 | RRIRKRPPRLPRPRPRPRFTPRP | 0.158
61 | RRIRKRPPRLPRPRPRPRGWPRP | 0.792
62 | RRIRKRPPRLPRPRPRPRHIPRP | -0.0145
63 | RRIRKRPPRLPRPRPRPRHLPRP | 0.218
64 | RRIRKRPPRLPRPRPRPRHPPRP | 0.412
65 | RRIRKRPPRLPRPRPRPRIQPRP | 0.475
66 | RRIRKRPPRLPRPRPRPRKPPRP | 1.65
67 | RRIRKRPPRLPRPRPRPRLDPRP | 0.624
68 | RRIRKRPPRLPRPRPRPRMIPRP | -0.00692
69 | RRIRKRPPRLPRPRPRPRMNPRP | 0.115
70 | RRIRKRPPRLPRPRPRPRMWPRP | 0.377
71 | RRIRKRPPRLPRPRPRPRPAPRP | 0.758
72 | RRIRKRPPRLPRPRPRPRQMPRP | 0.0035
73 | RRIRKRPPRLPRPRPRPRRMPRP | 0.488
74 | RRIRKRPPRLPRPRPRPRSFPRP | -0.0333
75 | RRIRKRPPRLPRPRPRPRSIPRP | 0.176

Row | Sequence | shrunken log2 fold change
76 | RRIRKRPPRLPRPRPRPRVIPRP | 0.0832
77 | RRIRKRPPRLPRPRPRPRVYPRP | 0.307
78 | RRIRKRPPRLPRPRPRPRWAPRP | 0.469
79 | RRIRKRPPRLPRPRPRPRWCPRP | 0.251
80 | RRIRKRPPRLPRPRPRPRYAPRP | -0.129
81 | RRIRKRPPRLPRPRPRPRYDPRP | -0.0842
82 | RRIRKRPPRLPRPRPRPRYGPRP | -0.238
83 | RRIRKRPPRLPRPRPRPSAIPRP | -0.00962
84 | RRIRKRPPRLPRPRPRPSDCPRP | -0.00471
85 | RRIRKRPPRLPRPRPRPSDHPRP | -0.239
86 | RRIRKRPPRLPRPRPRPSESPRP | 0.0559
87 | RRIRKRPPRLPRPRPRPSGGPRP | 0.255
88 | RRIRKRPPRLPRPRPRPSGHPRP | -0.0496
89 | RRIRKRPPRLPRPRPRPSHEPRP | -0.218
90 | RRIRKRPPRLPRPRPRPSHRPRP | -0.0303
91 | RRIRKRPPRLPRPRPRPSIDPRP | 0.175
92 | RRIRKRPPRLPRPRPRPSISPRP | 0.146
93 | RRIRKRPPRLPRPRPRPSKFPRP | -0.16
94 | RRIRKRPPRLPRPRPRPSMCPRP | -0.472
95 | RRIRKRPPRLPRPRPRPSMEPRP | 0.181
96 | RRIRKRPPRLPRPRPRPSPAPRP | 0.478
97 | RRIRKRPPRLPRPRPRPSQDPRP | 0.107
98 | RRIRKRPPRLPRPRPRPSQFPRP | 0.164
99 | RRIRKRPPRLPRPRPRPSQHPRP | 0.109
100 | RRIRKRPPRLPRPRPRPSSAPRP | 0.214

Row | Sequence | shrunken log2 fold change
101 | RRIRKRPPRLPRPRPRPSWYPRP | -0.519
102 | RRIRKRPPRLPRPRPRPSYWPRP | -0.144
103 | RRIRKRPPRLPRPRPRPTERPRP | 0.306
104 | RRIRKRPPRLPRPRPRPTFDPRP | 0.227
105 | RRIRKRPPRLPRPRPRPTFRPRP | 0.527
106 | RRIRKRPPRLPRPRPRPTHHPRP | 0.897
107 | RRIRKRPPRLPRPRPRPTHYPRP | -0.134
108 | RRIRKRPPRLPRPRPRPTIVPRP | -0.0951
109 | RRIRKRPPRLPRPRPRPTMIPRP | -0.0569
110 | RRIRKRPPRLPRPRPRPTNGPRP | 0.0599
111 | RRIRKRPPRLPRPRPRPTQHPRP | 0.748
112 | RRIRKRPPRLPRPRPRPTQTPRP | 1.25
113 | RRIRKRPPRLPRPRPRPTQWPRP | 0.622
114 | RRIRKRPPRLPRPRPRPTRPPRP | 0.764
115 | RRIRKRPPRLPRPRPRPTSCPRP | 0.174
116 | RRIRKRPPRLPRPRPRPTSWPRP | 0.6
117 | RRIRKRPPRLPRPRPRPTTFPRP | 0.18
118 | RRIRKRPPRLPRPRPRPTTYPRP | 0.00371
119 | RRIRKRPPRLPRPRPRPTVGPRP | 0.197
120 | RRIRKRPPRLPRPRPRPTVPPRP | 0.283
121 | RRIRKRPPRLPRPRPRPTVVPRP | 1
122 | RRIRKRPPRLPRPRPRPTWEPRP | -0.0667
123 | RRIRKRPPRLPRPRPRPTYTPRP | 0.475
124 | RRIRKRPPRLPRPRPRPVCKPRP | 0.0228
125 | RRIRKRPPRLPRPRPRPVCTPRP | 2.01

Row | Sequence | shrunken log2 fold change
126 | RRIRKRPPRLPRPRPRPVDKPRP | 0.0581
127 | RRIRKRPPRLPRPRPRPVFHPRP | 0.818
128 | RRIRKRPPRLPRPRPRPVFQPRP | 0.447
129 | RRIRKRPPRLPRPRPRPVFWPRP | 0.666
130 | RRIRKRPPRLPRPRPRPVGEPRP | 1.18
131 | RRIRKRPPRLPRPRPRPVHIPRP | -0.021
132 | RRIRKRPPRLPRPRPRPVLNPRP | 0.0304
133 | RRIRKRPPRLPRPRPRPVMGPRP | 0.155
134 | RRIRKRPPRLPRPRPRPVMSPRP | -0.123
135 | RRIRKRPPRLPRPRPRPVNMPRP | 0.113
136 | RRIRKRPPRLPRPRPRPVPCPRP | 0.0663
137 | RRIRKRPPRLPRPRPRPVPIPRP | 0.177
138 | RRIRKRPPRLPRPRPRPVQMPRP | 0.241
139 | RRIRKRPPRLPRPRPRPVQQPRP | 0.368
140 | RRIRKRPPRLPRPRPRPVSGPRP | 0.233
141 | RRIRKRPPRLPRPRPRPVWCPRP | -0.0673
142 | RRIRKRPPRLPRPRPRPVWLPRP | 0.192
143 | RRIRKRPPRLPRPRPRPVWSPRP | -0.0616
144 | RRIRKRPPRLPRPRPRPWCPPRP | 0.0532
145 | RRIRKRPPRLPRPRPRPWCVPRP | -0.00029
146 | RRIRKRPPRLPRPRPRPWDWPRP | 0.504
147 | RRIRKRPPRLPRPRPRPWEAPRP | 0.0326
148 | RRIRKRPPRLPRPRPRPWFAPRP | 0.171
149 | RRIRKRPPRLPRPRPRPWFTPRP | -0.00863
150 | RRIRKRPPRLPRPRPRPWGIPRP | -0.168
